Source: patent publication US9533026B2, “Polypeptide compounds for inhibiting angiogenesis and tumor growth” (VasGene Therapeutics, Inc., priority 2004, dated 2017)

Tests used:
human endothelial cells = test: Endothelial cell chemotaxis / migration (Boyden chamber); assay type: cell-based; details: for chemotaxis of human endothelial cells: umbilical cord and hepatic AECs or VECs, growth factor stimuli
Procedure: Migration is assessed using the 48-well Boyden chamber and 8 μm pore size collagen-coated (10 μg/ml rat tail collagen; Collaborative Laboratories) polycarbonate filters (Osmonics, Inc.). The bottom chamber wells receive 27-29 μl of DMEM medium alone (baseline) or medium containing chemo-attractant (bFGF, VEGF or Swiss 3T3 cell conditioned medium). The top chambers receive 45 μl of HUVEC cell suspension (1×10^6 cells/ml) prepared in DMEM+1% BSA with or without test compound. After 5 h incubation at 37° C., the membrane is rinsed in PBS, fixed and stained in Diff-Quick solutions. The filter is placed on a glass slide with the migrated cells facing down and cells on top are removed using a Kimwipe. The testing is performed in 4-6 replicates and five fields are counted from each well. Negative unstimulated control values are subtracted from stimulated control and drug treated values and data is plotted as mean migrated cell±S.D. IC50 is calculated from the plotted data.
Chemotaxis of HUVECs to VEGF was assessed using a modified Boyden chamber, transwell membrane filter inserts in 24 well plates, 6.5 mm diam, 8 μm pore size, 10 μm thick matrigel coated, polycarbonate membranes (BD Biosciences). The cell suspensions of HUVECs (2×10^5 cells/ml) in 200 μl of EBM were seeded in the upper chamber and the soluble EphB4 protein were added simultaneously with stimulant (VEGF or bFGF) to the lower compartment of the chamber and their migration across a polycarbonate filter in response to 10-20 ng/ml of VEGF with or without 100 nM-1 μM test compound was investigated. After incubation for 4-24 h at 37° C., the upper surface of the filter was scraped with swab and filters were fixed and stained with Diff Quick. Ten random fields at 200× mag were counted and the results expressed as mean # per field. Negative unstimulated control values were subtracted from stimulated control and protein treated sample values and the data was plotted as mean migrated cell±S.D. IC50 was calculated from the plotted data.

[1] = test system: bFGF-induced corneal neovascularization; test: Mouse corneal micropocket assay; assay type: in vivo; details: mouse cornea, day 7 of implantation
Description: To further investigate the antiangiogenic activity of soluble EphB4 in vivo, we studied the inhibitory effect of administration of soluble EphB4 on neovascularization in the mouse cornea induced by bFGF. Hydron Pellets implanted into corneal micropocket could induce angiogenesis, in the presence of growth factors, in a typically avascular area. The angiogenesis response in mice cornea was moderate, the appearance of vascular buds was delayed and the new capillaries were sparse and grew slowly.
Mouse corneal micropocket assay was performed according to that detailed by Kenyon et al., 1996. Briefly, hydron pellets (polyhydroxyethylmethacrylate [polyHEMA], Interferon Sciences, New Brunswick, N.J., U.S.A.) containing either 90 ng of bFGF (R&D) or 180 ng of VEGF (R&D Systems, Minneapolis, Minn., U.S.A.) and 40 μg of sucrose aluminium sulfate (Sigma) were prepared. Using an operating microscope, a stromal linear keratotomy was made with a surgical blade (Bard-Parker no. 15) parallel to the insertion of the lateral rectus muscle in an anesthetized animal. An intrastromal micropocket was dissected using a modified von Graefe knife (2^••30 mm). […] The difference in pellet location for each growth factor was determined to be necessary given the relatively weaker angiogenic stimulation of VEGF in this model. […]

[2] = test system: vascularization of Matrigel plugs; test: Murine Matrigel plug angiogenesis assay; assay type: in vivo, mouse; details: for infiltration / invasion of cells into Matrigel plugs: plugs with growth factors; for vascularization of Matrigel plugs / in vivo angiogenesis: plugs with bFGF and VEGF, s.c., mice
Procedure: Cord formation assay of HUVEC in Matrigel™ (upper row). Cells in exponential growth phase were treated overnight with the indicated concentrations of EphB4 extracellular domain (ECD) prior to plating on Matrigel™. Cells were trypsinized and plated (1×10^5 cells/well) in a 24-well plate containing 0.5 ml Matrigel™. Shown are representative 20× phase contrast fields of cord formation after 8 hr plating on Matrigel™ in the continued presence of the test compounds as shown. Original magnification 200×. KS-SLK cells treated in a similar manner (middle row) in a cord formation assay on Matrigel™. […] After 7 days the plugs were removed, sectioned and stained with H&E to visualize cells migrating into the matrix.
Matrigel supplemented with bFGF and VEGF with and without soluble EphB4 was injected s.c. into Balb/C nu/nu mice, forming semi-solid plugs, for six days. Plugs without growth factors had virtually no vascularization or vessel structures after 6 days (FIG. 21). In contrast, plugs supplemented with bFGF and VEGF had extensive vascularization and vessels throughout the plug.
In vivo angiogenesis was assayed in mice as growth of blood vessels from subcutaneous tissue into a Matrigel plug containing the test sample. Matrigel rapidly forms a solid gel at body temperature, trapping the factors to allow slow release and prolonged exposure to surrounding tissues. Matrigel (8.13 mg/ml, 0.5 ml) in liquid form at 4° C. was mixed with Endothelial Cell Growth Supplement (ECGS), test proteins plus ECGS or Matrigel plus vehicle alone (PBS containing 0.25% BSA). Matrigel (0.5 ml) was injected into the abdominal subcutaneous tissue of female nu/nu mice (6 wks old) along the peritoneal mid line. There were 3 mice in each group. The animals were cared for in accordance with institutional and NIH guidelines. At day 6, mice were sacrificed and plugs were recovered and processed for histology. Typically the overlying skin was removed, and gels were cut out by retaining the peritoneal lining for support, fixed in 10% buffered formalin in PBS and embedded in paraffin. Sections of 3 μm were cut and stained with H&E or Masson's trichrome stain and examined under light microscope

Row | Molecule | chemotaxis of human endothelial cells (human endothelial cells) | chemotaxis of human endothelial cells (human endothelial cells; listed as EphB4v3) | corneal neovascularization induced by bFGF [1] | infiltration / invasion of cells into Matrigel plugs [2] | bFGF and VEGF-induced migration (human endothelial cells; HUV/AEC, Boyden chamber, dose-dependent) | vascularization of Matrigel plugs / in vivo angiogenesis [2] | vascularization of Matrigel plugs / in vivo angiogenesis ([2]; listed as EphB4-ECD) | infiltration / invasion of cells into Matrigel plugs ([2]; listed as EphB4 ECD)
1 | B4ECv3: soluble extracellular domain derivative of human EphB4, SEQ ID NO:1 (protein, Recombinant B4ECv3 protein) MELRVLLCWASLAAALEETLLNTKLETADLKWVTFPQVDGQWEELSGLDEEQHSVRTYEVCEVQRAPGQAHWLRTGWVPRRGAVHVYATLRFTMLECLSLPRAGRSCKETFTVFYYESDADTATALTPAWMENPYIKVDTVAAEHLTRKRPGAEATGKVNVKTLRLGPLSKAGFYLAFQDQGACMALLSLHLFYKKCAQLTVNLTRFPETVPRELVVPVAGSCVVDAVPAPGPSPSLYCREDGQWAEQPVTGCSCAPGFEAAEGNTKCRACAQGTFKPLSGEGSCQPCPANSHSNTIGSAVCQCRVGYFRARTDPRGAPCTTPPSAPRSVVSRLNGSSLHLEWSAPLESGGREDLTYALRCRECRPGGSCAPCGGDLTFDPGPRDLVEPWVVVRGLRPDFTYTFEVTALNGVSSLATGPVPFEPVNVTTDREVPPAVSDIRVTRSSPSSLSLAWAVPRAPSGAWLDYEVKYHEKGAEGPSSVRFLKTSENRAELRGLKRGASYLVQVRARSEAGYGPFGQEHHSQTQLDESEGWREQGSKRAILQIEGKPIPNPLLGLDSTRTGHHHHHH | blocked chemotaxis | inhibits chemotaxis | inhibits | inhibits invasion |  |  |  | 
2 | soluble EphB4: soluble EphB4 extracellular domain protein; exact construct not stated at the results (protein) LEETLLNTKLETADLKWVTFPQVDGQWEELSGLDEEQHSVRTYEVCDVQRAPGQAHWLRTGWVPRRGAVHVYATLRFTMLECLSLPRAGRSCKETFTVFYYESDADTATALTPAWMENPYIKVDTVAAEHLTRKRPGAEATGKVNVKTLRLGPLSKAGFYLAFQDQGACMALLSLHLFYKKCAQLTVNLTRFPETVPRELVVPVAGSCVVDAVPAPGPSPSLYCREDGQWAEQPVTGCSCAPGFEAAEGNTKCRACAQGTFKPLSGEGSCQPCPANSHSNTIGSAVCQCRVGYFRARTDPRGAPCTTPPSAPRSVVSRLNGSSLHLEWSAPLESGGREDLTYALRCRECRPGGSCAPCGGDLTFDPGPRDLVEPWVVVRGLRPDFTYTFEVTALNGVSSLATGPVPFEPVNVTTDREVPPAVSDIRVTRSSPSSLSLAWAVPRAPSGAVLDYEVKYHEKGAEGPSSVRFLKTSENRAELRGLKRGASYLVQVRARSEAGYGPFGQEHHSQTQLDESEGWREQLA |  |  | markedly inhibited | significantly inhibited | significantly inhibited | markedly reduced | inhibits | almost completely inhibited
